Test results from patent US20030100094A1 (NEW ENGLAND BIOLABS, published 2003).

T1: BbvCI subunit R2 E177G (mutated subunit of nicking enzyme N.BbvCI 2-12) (Bacillus brevis)
T1 construct: The R2 subunit of enzyme mutant 2-12 (R1+:R2E177G), also called Nb.BbvCI; also called ECK->GCK
T1 chain: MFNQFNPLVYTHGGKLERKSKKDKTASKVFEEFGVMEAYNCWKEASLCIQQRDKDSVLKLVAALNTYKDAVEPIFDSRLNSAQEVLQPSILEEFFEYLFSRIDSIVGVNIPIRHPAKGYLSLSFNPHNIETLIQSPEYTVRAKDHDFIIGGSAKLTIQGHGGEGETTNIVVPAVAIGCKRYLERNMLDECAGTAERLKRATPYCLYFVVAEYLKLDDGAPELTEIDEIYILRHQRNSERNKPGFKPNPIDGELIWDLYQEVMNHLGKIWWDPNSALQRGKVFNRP

T2: BbvCI restriction endonuclease subunit R2 (wild type, 285 aa, 32 kDa) (Bacillus brevis)
T2 construct: Recombinant, co-expressed with the R1 subunit in E. coli; also called BbvCI-R2; subunit 2
T2 chain: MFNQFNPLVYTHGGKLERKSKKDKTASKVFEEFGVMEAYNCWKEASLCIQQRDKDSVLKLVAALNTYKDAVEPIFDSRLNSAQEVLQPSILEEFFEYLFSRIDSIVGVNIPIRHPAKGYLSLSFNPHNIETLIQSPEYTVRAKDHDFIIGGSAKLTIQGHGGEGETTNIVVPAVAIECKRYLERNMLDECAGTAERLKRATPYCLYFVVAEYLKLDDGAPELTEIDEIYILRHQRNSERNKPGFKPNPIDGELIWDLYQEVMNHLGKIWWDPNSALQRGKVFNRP


What was measured:
[1] = target: T1, BbvCI subunit R2 E177G (mutated subunit …); assay: SDS-PAGE of purified enzyme (subunits co-purify)
From the text: (§1) FIG. 9. SDS-PAGE analysis of purified wild type R.BbvCI restriction endonuclease (lanes 2-3: prep. ‘Dan’; lanes 4-6: prep. ‘Diane’), and of purified N.BbvCI nicking endonucleases 2-12 (lanes 7-9), and 1-37 (lanes 10-12). Lane 1 (far left) contains molecular weight markers. All the enzymes preps migrate as two bands of roughly equal intensity signifying that the enzymes are heterodimers with 1:1 subunit stoichiometry.

[2] = target: T2, BbvCI restriction endonuclease subunit …; assay: SDS-PAGE of purified enzyme (subunits co-purify)
From the text: as §1

Row | binding result [1] | binding result [2] | Binder
1 | binds | binds | BbvCI restriction endonuclease subunit R1 (wild type, 275 aa, 31 kDa) (enzyme, Recombinant, co-expressed with the R2 subunit in E. coli; also called BbvCI-R1; subunit 1) MINEDFFIYEQLSHKKNLEQKGKNAFDEETEELVRQAKSGYHAFIEGINYDEVTKLDLNSSVAALEDYISIAKEIEKKHKMFNWRSDYAGSIIPEFLYRIVHVATVKAGLKPIFSTRNTIIEISGAAHREGLQIRRKNEDFALGFHEVDVKIASESHRVISLAVACEVKTNIDKNKLNGLDFSAERMKRTYPGSAYFLITETLDFSPDENHSSGLIDEIYVLRKQVRTKNRVQKAPLCPSVFAELLEDILEISYRASNVKGHVYDRLEGGKLIRV
2 | – | binds | BbvCI subunit R1 E167G (mutated subunit of nicking enzyme N.BbvCI 1-37) (enzyme, The R1 subunit of enzyme mutant 1-37 (R1E167G:R2+), also called Nt.BbvCI; also called EVK->GVK) MINEDFFIYEQLSHKKNLEQKGKNAFDEETEELVRQAKSGYHAFIEGINYDEVTKLDLNSSVAALEDYISIAKEIEKKHKMFNWRSDYAGSIIPEFLYRIVHVATVKAGLKPIFSTRNTIIEISGAAHREGLQIRRKNEDFALGFHEVDVKIASESHRVISLAVACGVKTNIDKNKLNGLDFSAERMKRTYPGSAYFLITETLDFSPDENHSSGLIDEIYVLRKQVRTKNRVQKAPLCPSVFAELLEDILEISYRASNVKGHVYDRLEGGKLIRV
